B1: LINE1-full (parent)
chain: UACGUAGGUGGUUUUCCCCUGAUAGUGCUAAGGGGGCCUGGAAGUUUGGACUGGGCAGAGCUCAACACAGCGUGGCAAAGUGGCUGUGGCUAGACUGCCUCUCUGGAUUCCUCGUCACUCAGCAGGGCAUCUCUGAGAGAAAUGCC

Variants of: B1
Assay: self-cleavage, relative activity (ratio to wild type); higher = more cleavage; in vitro, sequencing; the parent is a self-cleaving ribozyme

Variant	self-cleavage
A43G G93U	0.05
A43G C123U	1.21
A43G U130A	1.51
A43G U130C	1.2
G40A A129C	1.63
A42G G80C	0.62
G41U A121G	1.53
G41U U62C	0.04
G41U U62A	0.04
A43G A141U	1.61
A43G A141G	1.29
A43G U45G	1.53
A43C	1.35
A43G	1.21
A43U	1.26
A42C G53A	1.22
A42G A43G	1.17
G41U A94G	0.05
G41U U115A	1.29
G40A U91C	0.21
A43C U100C	1.99
A42G U46G	1.02
A42G U46A	1.11
A42U C56A	0.05

Variant	self-cleavage
G41C U46A	0.25
A42U A107U	0.92
A42U A59G	0.12
G41A A57U	0.11
G40U A78G	0.81
A43U A50G	1.29
A43G U81G	1.12
A43G U81A	1.68
A43G G83A	1.03
A43U A64G	0.42
A42G U102C	1.36
A42U U46C	1.37
A42G G144A	1.17
A43G U132A	1.55
A43G U132C	1.1
A43G U108A	0.71
A43G U47A	0.96
G41A U132C	1.25
G40A U119C	0.84
A42G U115C	1.67
A42U U119A	0.98
G41A A65G	0.03
G41A A124U	1.08
U39G U109C	1.87

Variant	self-cleavage
G40A A94U	0.26
A42C G97C	0.11
A42G A124G	0.87
A42G A124C	2.96
U39G C123U	0
G40A C145U	0.64
A42G A64G	0.28
A43G G58A	0.05
A42G A107G	1.7
G40A U96A	0.03
A42G A65U	0.32
A42G U73C	1.5
G40A G139A	0.58
U39G G74A	0.97
A42U U45A	0.95
A42G C101A	0.95
A42C A92C	0
A42U U104A	1.15
G41U U100C	1.28
A43G A69G	0.58
A43G A69U	0.08
A42G A117G	1.71
A43C U109C	0.26
A43G U134C	1.09

Variant	self-cleavage
A43G U134G	0.97
A43G A64C	0.2
A42U A138U	1.34
G41A A94G	0.13
A42G A141G	1.38
A42G G83A	0.96
A42G G74A	0.8
A43C A92G	0.18
A42G A94U	0.21
A42G A94G	0.26
A42G C99U	1.11
A42U U134C	1.34
A42U U134A	1.09
A42U A117G	1.21
A42U A117U	1.28
A42G G93A	0.01
A42G G93U	0.05
G41A A59G	0.07
G40A A64C	0.18
G40A A64U	0.38
A42U U96C	0.06
A42C A59G	0.45
A43G A140G	1.35
A42U U85C	0.13

Variant	self-cleavage
A42G U143C	1.3
A42G U143A	1.85
A42G G88A	0.09
G40C C146U	1.54
G40A U112C	0.89
U39G A129U	1.44
G40A A79U	1.13
G40A A140G	1.12
A42G U104C	1.81
A42G U104A	1.13
A42U A65G	0.06
A42C A43U	0.72
A42C A43G	1.13
G40A G106A	1.23
G40A U85C	0.04
G40A U85A	0.02
A43G A117U	1.93
A43G A117G	0.71
A43G U91A	0.89
A43G U143A	1.24
A43G A79C	2.63
G41C U132A	1.35
A42G C51A	2.3
G40A U115C	1.18

Variant	self-cleavage
G40A U115A	1.17
A43G A142G	1.5
G41A U119C	1.15
G41A U47A	1.77
G41A A141G	0.96
A43G A138U	1.31
A42U U109C	0.71
A43G C63G	0.1
A43G G48A	1.54
G41A A142G	1.18
A43G C128G	0.77
A43C U87A	0.09
G40A A43G	1
A42U A92G	0.09
A43G U96C	0.09
A43G A67C	0.05
A43G A67G	0.46
G41A A121G	1.15
U39G U47C	0.52
A42U U52C	0.54
A43G U46A	1.17
A42C U108C	0.8
G41U C145U	0.75
A43G U73G	1.56

Variant	self-cleavage
G41A U85G	0.09
G41A U85C	0.05
G41A U85A	0
U39G U132C	2.44
A43G A94U	0.16
A43G A94C	0.14
A42U G53A	1.72
G41U C103A	1.11
A43C U112C	2.1
A42G A121U	1.4
A42G A121G	1.59
G41U A140G	1.14
G40A A117G	1.03
G41A A129U	1.42
A43G G127U	1.87
G40A A42G	1.07
A43G G125A	1.24
A43G G125U	1.02
A42G C71G	0.35
A42G G135A	1.69
U39G A138G	1.01
A42G A136G	1.53
A42G A136U	1.4
